The values below come from paper PMC5338821, “Structure determination of a major facilitator peptide transporter: Inward facing PepTSt from Streptococcus thermophilus crystallized in space group P3_(1)21” (PLoS ONE, 2017).

This data set concerns the molecule itself. Put plainly: SEC; PepTSt solubilized and purified in LMNG (0.01%), final SEC step. On the technique in general: SEC sorts molecules by how far they enter the pores of the column.

In general, stoichiometry N refers to the number of molecules, sites or subunits per partner or assembly.

B1: peptide transporter PepTSt from Streptococcus thermophilus (wild-type) (natural protein)
chain: MEDKGKTFFGQPLGLSTLFMTEMWERFSYYGMRAILLYYMWFLISTGDLHITRATAASIMAIYASMVYLSGTIGGFVADRIIGARPAVFWGGVLIMLGHIVLALPFGASALFGSIILIIIGTGFLKPNVSTLVGTLYDEHDRRRDAGFSIFVFGINLGAFIAPLIVGAAQEAAGYHVAFSLAAIGMFIGLLVYYFGGKKTLDPHYLRPTDPLAPEEVKPLLVKVSLAVAGFIAIIVVMNLVGWNSLPAYINLLTIVAIAIPVFYFAWMISSVKVTSTEHLRVVSYIPLFIAAVLFWAIEEQGSVVLATFAAERVDSSWFPVSWFQSLNPLFIMLYTPFFAWLWTAWKKNQPSSPTKFAVGLMFAGLSFLLMAIPGALYGTSGKVSPLWLVGSWALVILGEMLISPVGLSVTTKLAPKAFNSQMMSMWFLSSSVGSALNAQLVTLYNAKSEVAYFSYFGLGSVVLGIVLVFLSKRIQGLMQGVE
notes: PepTSt, major facilitator superfamily peptide transporter of Streptococcus thermophilus; Dimer in LMNG and DDM, monomer in DM and NM; also called Ce27; source: Escherichia coli C41, membrane solubilization, purified (IMAC, SEC) in DDM, DM, NM or LMNG; not shown: hexahistidine, C-terminal, cleaved
As to B1, the “stoichiometry N” value worked out at 2.
